Test results as given in US9376706B2, “Protease detection” (Mologic Limited, priority 2007, dated 2016).
Square brackets hold non-standard residues; d marks the D form. Ends that are not written are not given here. ANA = 2-amino naphthoic acid; 4Abz = Nc1ccc(C(=O)O)cc1

Legend:
Assay type in all cases: biochemical
Neutrophil Elastase [1] = biological target: T1, Neutrophil Elastase (Homo sapiens, UniProt P08246); assay: Vertical flow column assay, peptide conjugated to frits, elastase, DMAC development; settings: column with elastase, flow contact time approx. 30 seconds
T1 sequence (P08246 30-267): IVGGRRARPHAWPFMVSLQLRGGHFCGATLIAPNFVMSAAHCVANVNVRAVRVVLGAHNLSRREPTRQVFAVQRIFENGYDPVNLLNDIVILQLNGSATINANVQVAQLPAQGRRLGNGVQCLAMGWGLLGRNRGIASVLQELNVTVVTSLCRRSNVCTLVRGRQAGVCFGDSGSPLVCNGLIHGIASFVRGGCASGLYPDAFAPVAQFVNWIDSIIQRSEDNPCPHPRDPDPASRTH
Description: Another assay format was used to test for the activity of the enzyme Neutrophil Elastase in the presence of the two peptides, AAPV-[pABA]-GGC (SEQ ID NO: 3) and AAPV-[ANA]-GGC (SEQ ID NO: 4). The C-terminal cysteine group of the peptides was used as a means of conjugation to a solid surface. Sintered polyethylene frits functionalised with iodoacetyl groups were rinsed in 50 mM sodium phosphate, 5 mM EDTA, pH 7.4 for 10 minutes. The frits were then transferred to a solution of 0.5 mg/ml peptide (in PBS) for sensitisation for 30 minutes. The frits were then rinsed once more in phosphate EDTA buffer for 10 minutes. The frits were loaded into empty columns and 200 μl of elastase was added with an approximate flow contact time of 30 seconds. To develop the assay, 100 μl of working DMAC solution (0.3 mg/ml DMAC, 50 mM HCl) was passed through the column.

Neutrophil Elastase [2] = biological target: T1, Neutrophil Elastase; assay: Plate assay of peptides as elastase substrates with DMAC visualisation; settings: for suitability as elastase substrate: conclusion of Examples 3A and 3B; for result for elastase activity (well colour): 37° C., 30 minutes, pH 7.4
Description: Two peptides, AAPV-[pABA]-GGC (SEQ ID NO: 3) and AAPV-[ANA]-GGC (SEQ ID NO: 4), were synthesised, wherein pABA is para-amino benzoic acid and ANA is 2-amino naphthoic acid. Both peptides were tested for their suitability as a substrate for the Neutrophil Elastase enzyme. The electrospray mass spectrums of AAPV-[pABA]-GGC (SEQ ID NO: 3) and AAPV-[ANA]-GGC (SEQ ID NO: 4) are shown in FIGS. 10A and 10B respectively.
Varying concentrations of Elastase (5 μl of 18, 9, 6 and 3 units/ml dilutions) were added to 0.5 mg/ml peptide (5 μl) in separate plate wells. The mixtures were diluted with 20 μl of Buffer (50 mM phosphate, 5 mM EDTA; pH 7.4) and incubated at 37° C. for 30 minutes. 15 μl of working DMAC solution (0.3 mg/ml DMAC, 50 mM HCl) was added to each plate well and mixed thoroughly to visualize.

papain = biological target: T2, papain (Carica papaya, UniProt P00784); assay: Booklet assay for detection of papain with DMAC visualisation
T2 sequence (P00784 134-345): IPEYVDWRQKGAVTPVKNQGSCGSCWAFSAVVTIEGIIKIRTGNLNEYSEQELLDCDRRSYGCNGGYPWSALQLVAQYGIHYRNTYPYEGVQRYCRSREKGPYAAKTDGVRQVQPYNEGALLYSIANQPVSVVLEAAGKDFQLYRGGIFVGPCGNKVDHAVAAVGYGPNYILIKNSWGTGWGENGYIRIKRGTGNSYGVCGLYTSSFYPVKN
Excerpt: The polypeptides of the present invention are, in some embodiments, incorporated into a product for detecting a protease enzyme in a sample which takes the form of a booklet. A suitable such booklet is disclosed in PCT application No. PCT/GB2007/000643 which is incorporated herein by reference. Referring to FIG. 3 a booklet 1 in accordance with this embodiment will now be described. The booklet comprises first and second sheets 2, 3 of planar substrate such as cardboard, connected by a hinge 4. In the centre of the first sheet there is provided a thin reaction film 25 on top of an absorbent pad 5. The reaction film 25 is impregnated with the chromogenic polypeptide and can be made from PVA. On the centre of the second sheet 3 there is provided an aperture 6 which is aligned with the reaction film 25 and the absorbent pad 5. The aperture 6 is covered by a visualisation film 7, such that the visualisation film 7 lies between the aperture 6 and the reaction film 25 when the first and second sheets 2, 3 are pressed against each other. The visualisation film 7 is impregnated with DMAC and HCl. Optionally, the reaction film 25 and the absorbent pad 5 are covered with a removable film (not shown) prior to use so that the reaction film 25 and the absorbent pad 5 are kept sealed from the environment. […]

result of vertical flow assay (column colour) (Neutrophil Elastase [1])	result for elastase activity (well colour) (Neutrophil Elastase [2]; final elastase 0.5 units/ml)	result for elastase activity (well colour) (Neutrophil Elastase [2]; final elastase 3, 1.5 or 1 units/ml)	result for elastase activity (well colour) (Neutrophil Elastase [2]; all wells with elastase)	Substance	suitability as elastase substrate (Neutrophil Elastase [2])	colour change of DMAC in booklet assay (papain; papain sample, 5 min on first sheet, read ten minutes after folding onto DMAC sheet)	rate of colour change compared with BANA (papain; papain, identical conditions, FIG. 7C)
positive result	weak positive result	positive result		AAPV-[pABA]-GGC (AAPV[4Abz]GGC) [chromogenic peptide, pABA is para-amino benzoic acid]	significantly more suitable as a substrate for elastase		
negative results			elastase activity was not detected	AAPV-[ANA]-GGC (AAPV[ANA]GGC) [chromogenic peptide, ANA is 2-amino naphthoic acid]	poor elastase substrate		
				Val-Arg-[pABA]-Gly (VR[4Abz]G-OH; N-terminus assumed; SMILES CC(C)[C@H](N)C(=O)N[C@@H](CCCNC(=N)N)C(=O)Nc1ccc(C(=O)NCC(=O)O)cc1) [chromogenic polypeptide; pABA is para-amino benzoic acid]		changed from yellow to red	faster detectable colour change than BANA
